Results: patent publication US11505583B2, “Proteins for the treatment of epithelial barrier function disorders” (Second Genome, Inc., priority 2018, dated 2022)

Columns and labels:
trypsin = assay: Incubation with immobilized trypsin, SDS-PAGE (Example 14); format: in vitro ADME; conditions: room temperature, 10 min to 2 hr, PBS pH 7.4, FIG. 25
Method: An experiment was performed to assess generation of the fragment upon incubation in the presence of trypsin. Columns were prepared to contain 100 μl immobilized Trypsin slurry, washed twice with PBS, loaded with SG-11 (SEQ ID NO:9) diluted in PBS, pH 7.4, then incubated at room temperature for varied times. To stop the reaction, each column was centrifuged to remove protein from the column, then analyzed on an SDS-PAGE gel using Coomassie Blue visualization.

[1] = Aggregation by analytical size exclusion chromatography (Example 9); format: physicochemical
Method: The stability of SG-11 (SEQ ID NO:9) was evaluated following the incubation at 37° C. for one week and at 4° C. for 3 weeks in Buffer C (100 mM sodium phosphate, pH 7.0, 0.5 M sorbitol). The stability was assessed by monitoring the aggregation formation with analytical size exclusion chromatography (SEC) equilibrated with Buffer D (100 mM sodium phosphate, pH 7.0, 10% glycerol). […] The cause of the aggregation was investigated as follows. There are two cysteine residues found in SG-11 at the positions 147 and 151 (relative to SEQ ID NO:7). […] As free sulfhydryl groups could cause aggregation by forming unpreferable intermolecular disulfide bonds, it was examined whether the presence of reducing agent, such as β-mercaptoethanol, could prevent the aggregation.

[2] = Forced degradation under stress conditions (SEC-HPLC, LC/MS/MS) (Example 8); format: physicochemical; conditions: for Aggregates (SEC-HPLC): 2 weeks
Method: SG-11 (SEQ ID NO:9) was also tested under a series of stress conditions shown in Table 8 below to further characterized the stability of recombinant, purified SG-11. Stressed samples were analyzed either by SEC-HPLC for the presence of aggregates and/or degradants. LC/MS/MS was performed for determination of levels of deamidation and oxidation.
For this analysis, SG-11 (SEQ ID NO:9) was present at a concentration of 1 mg/ml in PBS (50 mM sodium phosphate, 150 mM NaCl, 10% glycerol, pH 8.0), with the exception of tests under pH 4 and pH 9. For pH 4, SG-11 (SEQ ID NO:9) was prepared at a concentration of 1 mg/ml in sodium acetate buffer (50 mM sodium acetate, 150 mM NaCl, pH 4). For pH 9, SG-11 (SEQ ID NO:9) was prepared at a concentration of 1 mg/ml in CAPSO (3-cyclohexylamino-2-hydroxy-1-propanesulfonic acid) buffer (50 mM CAPSO, 150 mM NaCl, pH 9).
Three samples treated by incubation at 40° C. for two weeks, oxidation (H2O2) or high pH 9, respectively, were analyzed by LC/MS/MS for PTMs. […] 7.84% of N53 was deamidated without any treatment.
After reduction, free cysteines were artificially carbamidomethylated by iodoacetamide to block cysteine residues from oxidation in the assays.

[3] = Stability in fecal slurry, SDS-PAGE and Coomassie blue (Example 14); conditions: 37° C., 10 min, 30 min, 1 hr, 2 hr; human fecal pellets in PBS; FIG. 24

B1: SG-11 (SEQ ID NO:9): SG-11 (SEQ ID NO:3) with a FLAG-tag (DYKDDDDK) at the N-terminus (protein)
chain: MDYKDDDDKGSSHMLEGEESVVYVGKKGVIASLDVETLDQSYYDETELKSYVDAEVEDYTAEHGKNAVKVESLKVEDGVAKLKMKYKTPEDYTAFNGIELYQGKVVASLAAGYVYDGEFARVEEGKVVGAATKQDIYSEDDLKVAIIRANTDVKVDGEICYVSCQNVKLTGKDSVSIRDGYYLETGSVTASVDVTGQESVGTEQLSGTEQMEMTGEPVNADDTEQTEAAAGDGSFETDVYTFIVYK
modifications: N-terminal FLAG tag
In the case of B1, the “Product on incubation with trypsin (SDS-PAGE)” value (trypsin) is reported as “a predominant band is generated in the presence of trypsin”, the “Aggregation formation (analytical SEC)” value ([1]; 4-days incubation at 37° C. in presence of 2.5% (v/v) mercaptoethanol, 50 mM sodium phosphate, 150 mM NaCl, 10% glycerol) is reported as “Aggregation was greatly suppressed” and the “Aggregation formation (analytical SEC)” value ([1]; 4° C. for 3 weeks in Buffer C (100 mM sodium phosphate, pH 7.0, 0.5 M sorbitol), vs freshly thawed protein) is reported as “No noticeable change”. For the same molecule, the “Aggregation formation (analytical SEC)” value ([1]; 37° C. for one week in Buffer C (100 mM sodium phosphate, pH 7.0, 0.5 M sorbitol)) was “clearly showed aggregation peaks”, the “Aggregates (SEC-HPLC)” value ([2]; 4° C.) was “low level of aggregates” and the “Aggregates (SEC-HPLC)” value ([2]; 37° C.) was “major aggregation occurred”. For the same molecule, the “Aggregation or degradation (SEC-HPLC)” value ([2]; mechanical stress) was “do not cause either protein aggregation or degradation”, the “Aggregation or degradation (SEC-HPLC)” value ([2]; repeated freeze and thaw) was “do not cause either protein aggregation or degradation” and the “Stability in fecal slurry (SDS-PAGE)” value [3] was “generation of a predominant band with an apparent molecular weight of about 25 kDa”.
